From PMC6981973

Target: transferrin receptor (TfR) (human (endogenous in Caco-2)) (UniProt P02786)
Sequence (P02786 whole entry): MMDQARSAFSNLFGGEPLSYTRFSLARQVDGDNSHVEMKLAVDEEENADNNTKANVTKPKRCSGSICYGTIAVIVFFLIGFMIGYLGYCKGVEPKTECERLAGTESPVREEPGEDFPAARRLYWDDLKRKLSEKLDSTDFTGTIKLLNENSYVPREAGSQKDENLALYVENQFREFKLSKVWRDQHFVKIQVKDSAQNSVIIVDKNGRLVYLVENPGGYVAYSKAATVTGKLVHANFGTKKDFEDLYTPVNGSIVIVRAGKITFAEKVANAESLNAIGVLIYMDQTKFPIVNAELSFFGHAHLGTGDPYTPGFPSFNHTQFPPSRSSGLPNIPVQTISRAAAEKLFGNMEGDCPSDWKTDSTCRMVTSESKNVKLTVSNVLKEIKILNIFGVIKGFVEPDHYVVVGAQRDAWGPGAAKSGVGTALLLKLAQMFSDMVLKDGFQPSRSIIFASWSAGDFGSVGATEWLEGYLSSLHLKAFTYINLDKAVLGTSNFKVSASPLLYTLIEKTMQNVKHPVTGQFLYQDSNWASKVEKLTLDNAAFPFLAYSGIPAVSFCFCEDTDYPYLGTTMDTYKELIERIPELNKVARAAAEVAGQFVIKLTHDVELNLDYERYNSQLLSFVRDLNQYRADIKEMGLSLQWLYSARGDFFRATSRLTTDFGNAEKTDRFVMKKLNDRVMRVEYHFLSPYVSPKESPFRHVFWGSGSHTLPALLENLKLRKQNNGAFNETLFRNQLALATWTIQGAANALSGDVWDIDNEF

Chain of rFIX-Tf/Dithi (P02787 whole entry, looked up): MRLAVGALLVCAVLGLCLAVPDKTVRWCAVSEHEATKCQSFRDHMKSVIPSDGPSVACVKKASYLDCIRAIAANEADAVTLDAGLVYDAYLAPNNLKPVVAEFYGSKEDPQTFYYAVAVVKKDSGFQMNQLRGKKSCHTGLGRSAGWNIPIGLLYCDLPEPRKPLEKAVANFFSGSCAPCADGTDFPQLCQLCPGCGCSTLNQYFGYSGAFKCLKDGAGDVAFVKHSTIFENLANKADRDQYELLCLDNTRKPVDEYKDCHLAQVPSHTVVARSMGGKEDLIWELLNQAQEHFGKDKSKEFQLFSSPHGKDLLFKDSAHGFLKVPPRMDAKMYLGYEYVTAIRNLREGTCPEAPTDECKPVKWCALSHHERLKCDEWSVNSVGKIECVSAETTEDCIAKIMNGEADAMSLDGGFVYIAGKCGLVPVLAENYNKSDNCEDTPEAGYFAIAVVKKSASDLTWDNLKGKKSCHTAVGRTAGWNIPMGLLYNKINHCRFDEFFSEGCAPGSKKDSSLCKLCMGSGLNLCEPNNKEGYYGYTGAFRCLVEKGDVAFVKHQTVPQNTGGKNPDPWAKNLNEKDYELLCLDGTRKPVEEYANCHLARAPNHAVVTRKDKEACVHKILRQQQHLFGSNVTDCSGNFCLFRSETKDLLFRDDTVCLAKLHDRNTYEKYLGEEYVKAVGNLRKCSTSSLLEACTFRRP
Chain of rFIX-Tf/Dithi (P00740 whole entry, looked up): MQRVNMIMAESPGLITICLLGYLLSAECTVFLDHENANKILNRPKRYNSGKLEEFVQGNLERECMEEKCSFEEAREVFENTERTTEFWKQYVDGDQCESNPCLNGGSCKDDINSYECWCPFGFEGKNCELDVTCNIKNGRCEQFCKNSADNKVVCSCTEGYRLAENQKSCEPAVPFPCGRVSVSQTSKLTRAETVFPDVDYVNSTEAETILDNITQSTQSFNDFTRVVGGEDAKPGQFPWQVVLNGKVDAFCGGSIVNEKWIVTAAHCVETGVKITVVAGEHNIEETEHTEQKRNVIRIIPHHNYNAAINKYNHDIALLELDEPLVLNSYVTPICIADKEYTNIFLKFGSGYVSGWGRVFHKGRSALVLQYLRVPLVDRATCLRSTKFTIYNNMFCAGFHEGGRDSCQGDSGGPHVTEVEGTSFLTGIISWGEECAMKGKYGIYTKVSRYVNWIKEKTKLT

For “BeneFIX^®, a marketed coagulation factor IX (recombinant) product (enzyme)”, which specific (total minus nonspecific with 100-fold excess Tf) apical-to-basolateral transcytosis across Caco-2 monolayers, about 100 mIU/mL apical, 2, 4 and 6 h; protein transport rate at 6 h is on record?
Its specific (total minus nonspecific with 100-fold excess Tf) apical-to-basolateral transcytosis across Caco-2 monolayers, about 100 mIU/mL apical, 2, 4 and 6 h; protein transport rate at 6 h is 0.024%.

Which specific apical-to-basolateral transcytosis across Caco-2 monolayers at 6 h, fold over BeneFIX does the source give for “rFIX-Tf/Dithi (from UniProt P00740 47-461; P02787 20-698)” here?
Its specific apical-to-basolateral transcytosis across Caco-2 monolayers at 6 h, fold over BeneFIX is 4.4 fold.

And the specific apical-to-basolateral transcytosis across Caco-2 monolayers, fold over FIX-Tf (LE dipeptide linker)?
Its specific apical-to-basolateral transcytosis across Caco-2 monolayers, fold over FIX-Tf (LE dipeptide linker) is 1.5 fold.
